6 sequences from the supplement of paper PMC5998384 can be followed below.

Data set [1] concerns HeLa Kyoto. Nature of the data set: solubility change mitosis vs G1/S (difference of NP-40 vs SDS log2 ratios) (log2 ratio difference); higher = more soluble in mitosis.
In data set [2] the test system is HeLa Kyoto. Nature of the data set: solubility in G1/S (NP-40 vs SDS abundance) (log2 ratio); higher = more soluble. As to conditions: cell cycle stage: G1/S.
In data set [3] the test system is HeLa Kyoto. Nature of the data set: melting temperature (median over replicates), in situ; higher = more thermally stable.
The test system of data set [4] is HeLa Kyoto. Nature of the data set: thermal stability score vs G1/S (z-score of summed log2 fold changes over temperatures); higher = more thermally stable than in G1/S.
Where [5] appears, read: cell cycle stage: early G1 (4.5 h after nocodazole release).
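For melting temperature (median over replicates), in situ in this document: HeLa Kyoto cells synchronized by double thymidine or nocodazole block, proteins quantified by TMT10plex mass spectrometry, three independent biological replicates.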
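For solubility change mitosis vs G1/S (difference of NP-40 vs SDS log2 ratios) in this document: synchronized HeLa Kyoto cells (double thymidine block for G1/S, nocodazole release for mitosis), protein amounts in NP-40 versus SDS lysates quantified by mass spectrometry, three biological replicates.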
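For solubility in G1/S (NP-40 vs SDS abundance) in this document: HeLa Kyoto cells arrested at G1/S by double thymidine block, proteins quantified by TMT10plex mass spectrometry in mild NP-40 versus SDS extracts, three biological replicates.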
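For thermal stability score vs G1/S (z-score of summed log2 fold changes over temperatures) in this document: synchronized HeLa Kyoto cells, proteins quantified by TMT10plex mass spectrometry, three biological replicates, mitosis taken 0.5 h after nocodazole release, G1/S directly after double thymidine block.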

Regarding “MDTEGFGELLQQAEQLAAETEGISELPHVERNLQEIQQAGERLRSRTLTRTSQETADVKASVLLGSRGLDISHISQRLESLSAATTFEPLEPVKDTDIQGFLKNEKDNALLSAIEESRKRTFGMAEEYHRESMLVEWEQVKQRILHTLLASGEDALDFTQESEPSYISDVGPPGRSSLDNIEMAYARQIYIYNEKIVNGHLQPNLVDLCASVAELDDKSISDMWTMVKQMTDVLLTPATDALKNRSSVEVRMEFVRQALAYLEQSYKNYTLVTVFGNLHQAQLGGVPGTYQLVRSFLNIKLPAPLPGLQDGEVEGHPVWALIYYCMRCGDLLAASQVVNRAQHQLGEFKTWFQEYMNSKDRRLSPATENKLRLHYRRALRNNTDPYKRAVYCIIGRCDVTDNQSEVADKTEDYLWLKLNQVCFDDDGTSSPQDRLTLSQFQKQLLEDYGESHFTVNQQPFLYFQVLFLTAQFEAAVAFLFRMERLRCHAVHVALVLFELKLLLKSSGQSAQLLSHEPGDPPCLRRLNFVRLLMLYTRKFESTDPREALQYFYFLRDEKDSQGENMFLRCVSELVIESREFDMILGKLENDGSRKPGVIDKFTSDTKPIINKVASVAENKGLFEEAAKLYDLAKNADKVLELMNKLLSPVVPQISAPQSNKERLKNMALSIAERYRAQGISANKFVDSTFYLLLDLITFFDEYHSGHIDRAFDIIERLKLVPLNQESVEERVAAFRNFSDEIRHNLSEVLLATMNILFTQFKRLKGTSPSSSSRPQRVIEDRDSQLRSQARTLITFAGMIPYRTSGDTNARLVQMEVLMN [NUP93]”, the “solubility change mitosis (log2)” value in data set [1] came out at 0.117. Besides, in data set [2], the “solubility in G1/S (log2)” value is -0.149. Besides, the melting temperature in data set [3] (cell cycle stage: G1/S) was 51.9 °C; in data set [3] (cell cycle stage: mitosis), 48.3 °C. Also, the thermal stability score was -3.26 in data set [4] (setting [5]) and -4.55 in data set [4] (cell cycle stage: mitosis).

Regarding “MDTPPLSDSESESDESLVTDRELQDAFSRGLLKPGLNVVLEGPKKAVNDVNGLKQCLAEFKRDLEWVERLDVTLGPVPEIGGSEAPAPQNKDQKAVDPEDDFQREMSFYRQAQAAVLAVLPRLHQLKVPTKRPTDYFAEMAKSDLQMQKIRQKLQTKQAAMERSEKAKQLRALRKYGKKVQTEVLQKRQQEKAHMMNAIKKYQKGFSDKLDFLEGDQKPLAQRKKAGAKGQQMRKGPSAKRRYKNQKFGFGGKKKGSKWNTRESYDDVSSFRAKTAHGRGLKRPGKKGSNKRPGKRTREKMKNRTH [EBNA1BP2]”, in data set [1], the “solubility change mitosis (log2)” value worked out at 1.38. Besides, the “solubility in G1/S (log2)” value in data set [2] is -1.71. Further, the melting temperature turned out to be 54 °C in data set [3] (cell cycle stage: G1/S) and 53.4 °C in data set [3] (cell cycle stage: mitosis). For the same sequence, the thermal stability score in data set [4] (setting [5]) amounted to 0.765; in data set [4] (cell cycle stage: mitosis), 0.121.

“MDVRRLKVNELREELQRRGLDTRGLKAELAERLQAALEAEEPDDERELDADDEPGRPGHINEEVETEGGSELEGTAQPPPPGLQPHAEPGGYSGPDGHYAMDNITRQNQFYDTQVIKQENESGYERRPLEMEQQQAYRPEMKTEMKQGAPTSFLPPEASQLKPDRQQFQSRKRPYEENRGRGYFEHREDRRGRSPQPPAEEDEDDFDDTLVAIDTYNCDLHFKVARDRSSGYPLTIEGFAYLWSGARASYGVRRGRVCFEMKINEEISVKHLPSTEPDPHVVRIGWSLDSCSTQLGEEPFSYGYGGTGKKSTNSRFENYGDKFAENDVIGCFADFECGNDVELSFTKNGKWMGIAFRIQKEALGGQALYPHVLVKNCAVEFNFGQRAEPYCSVLPGFTFIQHLPLSERIRGTVGPKSKAECEILMMVGLPAAGKTTWAIKHAASNPSKKYNILGTNAIMDKMRVMGLRRQRNYAGRWDVLIQQATQCLNRLIQIAARKKRNYILDQTNVYGSAQRRKMRPFEGFQRKAIVICPTDEDLKDRTIKRTDEEGKDVPDHAVLEMKANFTLPDVGDFLDEVLFIELQREEADKLVRQYNEEGRKAGPPPEKRFDNRGGGGFRGRGGGGGFQRYENRGPPGGNRGGFQNRGGGSGGGGNYRGGFNRSGGGGYSQNRWGNNNRDNNNSNNRGSYNRAPQQQPPPQQPPPPQPPPQQPPPPPSYSPARNPPGASTYNKNSNIPGSSANTSTPTVSSYSPPQPSYSQPPYNQGGYSQGYTAPPPPPPPPPAYNYGSYGGYNPAPYTPPPPPTAQTYPQPSYNQYQQYAQQWNQYYQNQGQWPPYYGNYDYGSYSGNTQGGTSTQ [HNRNPUL1]”: in data set [1], the “solubility change mitosis (log2)” value is -0.0379. Besides, the “solubility in G1/S (log2)” value in data set [2] is -0.152. Further, the melting temperature in data set [3] (cell cycle stage: G1/S) stood at 46.9 °C; in data set [3] (cell cycle stage: mitosis) it was 49.2 °C. In addition, the thermal stability score came out at 3.72 in data set [4] (setting [5]) and 6.44 in data set [4] (cell cycle stage: mitosis).

“MDWGTELWDQFEVLERHTQWGLDLLDRYVKFVKERTEVEQAYAKQLRSLVKKYLPKRPAKDDPESKFSQQQSFVQILQEVNDFAGQRELVAENLSVRVCLELTKYSQEMKQERKMHFQEGRRAQQQLENGFKQLENSKRKFERDCREAEKAAQTAERLDQDINATKADVEKAKQQAHLRSHMAEESKNEYAAQLQRFNRDQAHFYFSQMPQIFDKLQDMDERRATRLGAGYGLLSEAELEVVPIIAKCLEGMKVAANAVDPKNDSHVLIELHKSGFARPGDVEFEDFSQPMNRAPSDSSLGTPSDGRPELRGPGRSRTKRWPFGKKNKPRPPPLSPLGGPVPSALPNGPPSPRSGRDPLAILSEISKSVKPRLASFRSLRGSRGTVVTEDFSHLPPEQQRKRLQQQLEERSRELQKEVDQREALKKMKDVYEKTPQMGDPASLEPQIAETLSNIERLKLEVQKYEAWLAEAESRVLSNRGDSLSRHARPPDPPASAPPDSSSNSASQDTKESSEEPPSEESQDTPIYTEFDEDFEEEPTSPIGHCVAIYHFEGSSEGTISMAEGEDLSLMEEDKGDGWTRVRRKEGGEGYVPTSYLRVTLN [TRIP10]”: the “solubility change mitosis (log2)” value in data set [1] is -0.00359. The “solubility in G1/S (log2)” value in data set [2] is 0.397. In addition, the results for the melting temperature in data set [3] (cell cycle stage: G1/S) and in data set [3] (cell cycle stage: mitosis) were 50.7 °C and 49.9 °C, respectively. The thermal stability score in data set [4] (setting [5]) was -0.196; in data set [4] (cell cycle stage: mitosis) it was -0.283.

As for “MEAADASRSNGSSPEARDARSPSGPSGSLENGTKADGKDAKTTNGHGGEAAEGKSLGSALKPGEGRSALFAGNEWRRPIIQFVESGDDKNSNYFSMDSMEGKRSPYAGLQLGAAKKPPVTFAEKGELRKSIFSESRKPTVSIMEPGETRRNSYPRADTGLFSRSKSGSEEVLCDSCIGNKQKAVKSCLVCQASFCELHLKPHLEGAAFRDHQLLEPIRDFEARKCPVHGKTMELFCQTDQTCICYLCMFQEHKNHSTVTVEEAKAEKETELSLQKEQLQLKIIEIEDEAEKWQKEKDRIKSFTTNEKAILEQNFRDLVRDLEKQKEEVRAALEQREQDAVDQVKVIMDALDERAKVLHEDKQTREQLHSISDSVLFLQEFGALMSNYSLPPPLPTYHVLLEGEGLGQSLGNFKDDLLNVCMRHVEKMCKADLSRNFIERNHMENGGDHRYVNNYTNSFGGEWSAPDTMKRYSMYLTPKGGVRTSYQPSSPGRFTKETTQKNFNNLYGTKGNYTSRVWEYSSSIQNSDNDLPVVQGSSSFSLKGYPSLMRSQSPKAQPQTWKSGKQTMLSHYRPFYVNKGNGIGSNEAP [TRIM29]”, the “solubility change mitosis (log2)” value in data set [1] was 0.303. The “solubility in G1/S (log2)” value in data set [2] was -0.308. For the same sequence, the results for the melting temperature in data set [3] (cell cycle stage: G1/S) and in data set [3] (cell cycle stage: mitosis) were 50.6 °C and 50.9 °C, respectively. Further, the thermal stability score is -0.827 in data set [4] (setting [5]) and -1.46 in data set [4] (cell cycle stage: mitosis).

Turning to “MEAARPPPTAGKFVVVGGGIAGVTCAEQLATHFPSEDILLVTASPVIKAVTNFKQISKILEEFDVEEQSSTMLGKRFPNIKVIESGVKQLKSEEHCIVTEDGNQHVYKKLCLCAGAKPKLICEGNPYVLGIRDTDSAQEFQKQLTKAKRIMIIGNGGIALELVYEIEGCEVIWAIKDKAIGNTFFDAGAAEFLTSKLIAEKSEAKIAHKRTRYTTEGRKKEARSKSKADNVGSALGPDWHEGLNLKGTKEFSHKIHLETMCEVKKIYLQDEFRILKKKSFTFPRDHKSVTADTEMWPVYVELTNEKIYGCDFIVSATGVTPNVEPFLHGNSFDLGEDGGLKVDDHMHTSLPDIYAAGDICTTSWQLSPVWQQMRLWTQARQMGWYAAKCMAAASSGDSIDMDFSFELFAHVTKFFNYKVVLLGKYNAQGLGSDHELMLRCTKGREYIKVVMQNGRMMGAVLIGETDLEETFENLILNQMNLSSYGEDLLDPNIDIEDYFD [PYROXD1]”, the “solubility change mitosis (log2)” value in data set [1] was -0.158. In addition, the “solubility in G1/S (log2)” value in data set [2] is -0.102. Also, the melting temperature in data set [3] (cell cycle stage: G1/S) amounted to 49.6 °C; in data set [3] (cell cycle stage: mitosis), 49.9 °C. Moreover, the thermal stability score in data set [4] (setting [5]) is -0.128; in data set [4] (cell cycle stage: mitosis), -0.037.
